Numbering of substitutions follows the chain as printed.
T1: human TREM2 (human, UniProt Q9NZC2 19-174, limits assumed)
T1 construct: also called triggering receptor expressed on myeloid cells 2
T1 sequence: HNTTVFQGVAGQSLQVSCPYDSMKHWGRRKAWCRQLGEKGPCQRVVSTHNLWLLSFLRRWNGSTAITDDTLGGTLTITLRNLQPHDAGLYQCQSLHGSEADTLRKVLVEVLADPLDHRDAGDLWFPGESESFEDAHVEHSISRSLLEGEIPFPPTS

B1: V79 (antibody, V domains shown)
VH: EVQLVQSGAEVKKPGESLKISCKGSGYSFTSYWIAWVRQMPGKGLEWMGIIYPGDSDTNYSPSFQGQVTISADKSISTAYLQWSSLKASDTAMYFCARQRTFYYDSSDYFDYWGQGTLVTVSS
VL: DIQMTQSPSSVSASVGDRVTITCRASQGISSWLAWYQQKPGKAPKLLIYAASSLQNGVPSRFSGSGSGTDFTLTISSLQPEDFATYFCQQADSFPRTFGQGTKLEIK
B2: V80 (antibody, V domains shown)
VH: B1 VH with N59R, T101N
VL: B1 VL
B3: V90 (antibody, V domains shown)
VH: B1 VH with Y32E, N59R
VL: B1 VL with S31R
B4: V83 (antibody, V domains shown)
VH: B1 VH with N59R
VL: B1 VL with D92V
B5: V81 (antibody, V domains shown)
VH: B1 VH with N59R
VL: B1 VL with W32L
B6: V91 (antibody, V domains shown)
VH: B1 VH with G54D, N59R
VL: B1 VL
B7: V92 (antibody, V domains shown)
VH: B1 VH with N59R, Y103H
VL: B1 VL
B8: V94 (antibody, V domains shown)
VH: B1 VH with N59R
VL: B1 VL with S52A
B9: V93 (antibody, V domains shown)
VH: B1 VH with N59R
VL: B1 VL with S31G
B10: V82 (antibody, V domains shown)
VH: B1 VH with N59R
VL: B1 VL with A51G
B11: V1 (antibody, V domains shown)
VH: B1 VH with Y32S, N59R, Q99S
VL: B1 VL with Q55T, F94Y
B12: V2 (antibody, V domains shown)
VH: B1 VH with Y27S, S56G, N59R, Q99S
VL: B1 VL with L54R, S93R
B13: V3 (antibody, V domains shown)
VH: B1 VH with T30A, N59R, G66D, Q99G
VL: B1 VL with L54R, S93R
B14: V26 (antibody, V domains shown)
VH: B1 VH with A35G, I50T, N59R, F102M, Y112A
VL: B1 VL with N56R, F94Y
B15: V24 (antibody, V domains shown)
VH: B1 VH with T58V, N59R, Q99S
VL: B1 VL with N56K, R96H
B16: V25 (antibody, V domains shown)
VH: B1 VH with T30G, I50L, N59R, Q99S
VL: B1 VL with Q55A, F94M
B17: V5 (antibody, V domains shown)
VH: B1 VH with I50T, N59R
VL: B1 VL with F94H
B18: V14 (antibody, V domains shown)
VH: B1 VH with T30G, S56Q, N59R, Q99G
VL: B1 VL with S53R
B19: V41 (antibody, V domains shown)
VH: B1 VH with I50T, N59R
VL: B1 VL
B20: V39 (antibody, V domains shown)
VH: B1 VH with T30G, N59R, S61N, Q99G
VL: B1 VL with Q55V, F94S
B21: V4 (antibody, V domains shown)
VH: B1 VH with T30G, N59R, Y60V, Q99S
VL: B1 VL with S53R, F94Y
B22: V40 (antibody, V domains shown)
VH: B1 VH with T30G, T58V, N59R, F110S
VL: B1 VL with N56L, S93R
B23: V15 (antibody, V domains shown)
VH: B1 VH with T30A, I50T, N59R, Q99S
VL: B1 VL with S53W, F94Y
B24: V27 (antibody, V domains shown)
VH: B1 VH with N59R, S61A, A97V, Q99S
VL: B1 VL with N56R
B25: V28 (antibody, V domains shown)
VH: B1 VH with T30Q, I50T, N59R, Y103F
VL: B1 VL with N56S, F94L
B26: V29 (antibody, V domains shown)
VH: B1 VH with T30K, N59R
VL: B1 VL
B27: V38 (antibody, V domains shown)
VH: B1 VH with T30G, T58V, N59R
VL: B1 VL with L54R, F94H
B28: V37 (antibody, V domains shown)
VH: B1 VH with F29H, N59R, Q65A, Q99S
VL: B1 VL with N56W, F94Y
B29: V36 (antibody, V domains shown)
VH: B1 VH with I34L, N59R, Q99S
VL: B1 VL with L54R, F94Y
B30: V16 (antibody, V domains shown)
VH: B1 VH with F29M, S56G, N59R, Q99S
VL: B1 VL with S53N
B31: V13 (antibody, V domains shown)
VH: B1 VH with T30G, N59R, P62A, Q99G
VL: B1 VL with N56G, F94M
B32: V17 (antibody, V domains shown)
VH: B1 VH with T30G, N59R, Q99S
VL: B1 VL with L54R, F94S

Target: T1, human TREM2
Assay: 2nd screen 100 nM

Going from B1 to B2, the “Binding Signal (fold over 6E7 Parental antibody)” value falls from 0.52 fold to 0.5 fold.

Going from B3 to B4, the “Binding Signal (fold over 6E7 Parental antibody)” value falls from 0.36 fold to 0.29 fold.

Going from B5 to B6, the “Binding Signal (fold over 6E7 Parental antibody)” value rises from 0.23 fold to 0.61 fold.

Going from B7 to B8, the “Binding Signal (fold over 6E7 Parental antibody)” value rises from 0.65 fold to 0.87 fold.

Compared with B9, B10 is lower in “Binding Signal (fold over 6E7 Parental antibody)” value: 1.05 fold for the first, 0.79 fold for the second.

Target: T1, human TREM2
Assay: 2nd screen 2 nM

Compared with B11, B12 is higher in “Binding Signal (fold over 6E7 Parental antibody)” value: 1.29 fold for the first, 2.23 fold for the second.

Compared with B13, B14 is higher in “Binding Signal (fold over 6E7 Parental antibody)” value: 1.95 fold for the first, 2.83 fold for the second.

First: B15
Second: B16
The “Binding Signal (fold over 6E7 Parental antibody)” value of the first is lower: 1.42 fold for the first, 3.15 fold for the second.

Going from B17 to B18, the “Binding Signal (fold over 6E7 Parental antibody)” value rises from 1.25 fold to 2.57 fold.

Compared with B19, B20 is higher in “Binding Signal (fold over 6E7 Parental antibody)” value: 0.58 fold for the first, 5.11 fold for the second.

Compared with B21, B22 is lower in “Binding Signal (fold over 6E7 Parental antibody)” value: 5.88 fold for the first, 3.41 fold for the second.

Going from B23 to B24, the “Binding Signal (fold over 6E7 Parental antibody)” value rises from 4.72 fold to 5.67 fold.

Going from B25 to B26, the “Binding Signal (fold over 6E7 Parental antibody)” value falls from 2.63 fold to 0.84 fold.

Compared with B27, B28 is higher in “Binding Signal (fold over 6E7 Parental antibody)” value: 3.44 fold for the first, 3.69 fold for the second.

Going from B29 to B30, the “Binding Signal (fold over 6E7 Parental antibody)” value falls from 4 fold to 3.57 fold.

First: B31
Second: B32
The “Binding Signal (fold over 6E7 Parental antibody)” value of the first is lower: 1.15 fold for the first, 4.22 fold for the second.

Target: T1, human TREM2
Assay: 1st screen (110 nM or 10 nM)

Compared with B11, B12 is higher in “Binding Signal (fold over 6E7 Parental antibody)” value: 1.68 fold for the first, 2.55 fold for the second.

First: B1
Second: B13
The “Binding Signal (fold over 6E7 Parental antibody)” value of the first is lower: 0.7 fold for the first, 1.97 fold for the second.

Compared with B14, B15 is lower in “Binding Signal (fold over 6E7 Parental antibody)” value: 3.57 fold for the first, 2.64 fold for the second.

Going from B16 to B17, the “Binding Signal (fold over 6E7 Parental antibody)” value falls from 4.23 fold to 2.73 fold.

First: B18
Second: B2
The “Binding Signal (fold over 6E7 Parental antibody)” value of the first is higher: 4.71 fold for the first, 0.59 fold for the second.

First: B3
Second: B19
The “Binding Signal (fold over 6E7 Parental antibody)” value of the first is lower: 0.33 fold for the first, 1.74 fold for the second.

First: B4
Second: B20
The “Binding Signal (fold over 6E7 Parental antibody)” value of the first is lower: 0.2 fold for the first, 6.15 fold for the second.

Going from B21 to B22, the “Binding Signal (fold over 6E7 Parental antibody)” value falls from 6 fold to 4.48 fold.

First: B23
Second: B5
The “Binding Signal (fold over 6E7 Parental antibody)” value of the first is higher: 5.23 fold for the first, 0.17 fold for the second.

Going from B6 to B7, the “Binding Signal (fold over 6E7 Parental antibody)” value falls from 0.25 fold to 0.22 fold.

Compared with B24, B25 is lower in “Binding Signal (fold over 6E7 Parental antibody)” value: 5.5 fold for the first, 3.08 fold for the second.

First: B26
Second: B27
The “Binding Signal (fold over 6E7 Parental antibody)” value of the first is lower: 1.53 fold for the first, 4.34 fold for the second.

First: B28
Second: B8
The “Binding Signal (fold over 6E7 Parental antibody)” value of the first is higher: 3.46 fold for the first, 0.31 fold for the second.

First: B29
Second: B9
The “Binding Signal (fold over 6E7 Parental antibody)” value of the first is higher: 3.38 fold for the first, 0.35 fold for the second.

Going from B10 to B30, the “Binding Signal (fold over 6E7 Parental antibody)” value rises from 0.3 fold to 4.01 fold.

Compared with B31, B32 is higher in “Binding Signal (fold over 6E7 Parental antibody)” value: 1.31 fold for the first, 5.37 fold for the second.

Target: T1, human TREM2
Assay: 2nd screen 10 nM

First: B11
Second: B12
The “Binding Signal (fold over 6E7 Parental antibody)” value of the first is lower: 1.92 fold for the first, 2.9 fold for the second.

First: B13
Second: B14
The “Binding Signal (fold over 6E7 Parental antibody)” value of the first is lower: 2.24 fold for the first, 3.47 fold for the second.

Compared with B15, B16 is higher in “Binding Signal (fold over 6E7 Parental antibody)” value: 2.9 fold for the first, 4.7 fold for the second.

Compared with B17, B18 is higher in “Binding Signal (fold over 6E7 Parental antibody)” value: 2.84 fold for the first, 4.64 fold for the second.

Compared with B19, B20 is higher in “Binding Signal (fold over 6E7 Parental antibody)” value: 1.72 fold for the first, 5.81 fold for the second.

Compared with B21, B22 is lower in “Binding Signal (fold over 6E7 Parental antibody)” value: 5.51 fold for the first, 4.16 fold for the second.

Going from B23 to B24, the “Binding Signal (fold over 6E7 Parental antibody)” value rises from 4.78 fold to 5.69 fold.

Going from B25 to B26, the “Binding Signal (fold over 6E7 Parental antibody)” value falls from 3.61 fold to 1.67 fold.

Going from B27 to B28, the “Binding Signal (fold over 6E7 Parental antibody)” value falls from 4.36 fold to 3.49 fold.

Compared with B29, B30 is higher in “Binding Signal (fold over 6E7 Parental antibody)” value: 3.44 fold for the first, 4.04 fold for the second.

Compared with B31, B32 is higher in “Binding Signal (fold over 6E7 Parental antibody)” value: 1.35 fold for the first, 5.51 fold for the second.

Source: patent US20250282866A1 (VIGIL NEUROSCIENCE, published 2025)
